Patent publication US7067117 (CAMBRIDGE UNIVERSITY TECHNICAL SERVICES, dated 2006)
“And” between values parts separate entries of the source, which are not always exact repeats. Equal entries are not always repeated. Where two headings read alike, the source gives them in different places. Square brackets hold non-standard residues; d marks the D form. Ends that are not written are not given here.

Columns and labels:
[1] = target: chemokine receptors on THP-1 cells; experiment: cell-based or functional assay
[2] = target: T1, Duffy Antigen Receptor for Chemokines (DARC) (human) (UniProt Q16570); experiment: DARC binding; given as 'affinity constant'
T1 sequence (looked up): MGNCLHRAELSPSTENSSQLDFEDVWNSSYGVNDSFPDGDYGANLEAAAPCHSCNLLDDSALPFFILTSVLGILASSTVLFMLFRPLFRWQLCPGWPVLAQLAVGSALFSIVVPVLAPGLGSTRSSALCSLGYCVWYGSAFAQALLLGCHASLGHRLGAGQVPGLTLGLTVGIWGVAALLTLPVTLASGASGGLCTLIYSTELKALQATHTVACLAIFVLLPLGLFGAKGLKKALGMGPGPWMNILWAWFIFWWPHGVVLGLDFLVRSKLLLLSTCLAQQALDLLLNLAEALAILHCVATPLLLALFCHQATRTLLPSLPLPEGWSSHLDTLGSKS

[3] = target: chemokine receptors on THP-1 cells; experiment: binding to chemokine receptors on THP-1 cells; given as 'association constant'
[4] = target: T1, Duffy Antigen Receptor for Chemokines (DARC) (human); experiment: estimated ka for binding to red blood cells divided by inhibitory ED50 (THP-1 migration)
[5] = target: chemokine receptors on THP-1 cells; experiment: cell-based or functional assay; remark: listed apart in the source
[6] = target: T1, Duffy Antigen Receptor for Chemokines (DARC) (human); experiment: ka for red blood cells divided by ED50
[7] = target: T1, Duffy Antigen Receptor for Chemokines (DARC) (human); experiment: estimated ka for binding to red blood cells divided by average inhibitory ED50 (THP-1 migration)
[8] = target: chemokine receptors on THP-1 cells; experiment: cell-based or functional assay; remark: listed apart in the source
[9] = target: T2, Duffy Antigen Receptor for Chemokines (DARC) (human), Q16570; experiment: estimated ka for binding to red blood cells divided by average inhibitory ED50 (THP-1 migration); details: remark: other sources report otherwise
T2 chain: T1 sequence (looked up)

[10] = target: T3, Duffy Antigen Receptor for Chemokines (DARC) (human, UniProt Q16570 1-336); experiment: DARC binding on red blood cells
T3 construct: whole, on cells
T3 sequence (looked up): T1 sequence (looked up)
Procedure: (§1) To overcome this difficulty, the ka for association of DARC with peptide 3(1–12)[MCP-1] (SEQ ID NO:1) and peptide 2(1–15)[MCP-1] […] After binding has reached equilibrium (30 minutes at 37° C.), the cells are separated from the unbound label by centrifugation for 5 minutes through a sucrose gradient. Counts associated with the cells are then determined by gamma-counting scintigraphy. […] Furthermore, Scatchard analysis confirms the presence of a single high affinity binding site with 500–1000 copies per cell, consistent with the known properties of DARC.

[11] = target: T3, Duffy Antigen Receptor for Chemokines …; experiment: Duffy binding
Procedure: as §1

[12] = target: T4, Duffy Antigen Receptor for Chemokines (DARC) (human, UniProt Q16570 1-336); experiment: DARC binding
T4 chain: T1 sequence (looked up)

[13] = target: T3, Duffy Antigen Receptor for Chemokines …; experiment: competition binding analysis using red blood cells
Procedure: as §1

[14] = target: T3, Duffy Antigen Receptor for Chemokines …; experiment: ka for binding to red blood cells divided by ka for binding to THP-1 cells
[15] = target: chemokine receptors on THP-1 cells; experiment: estimated ka for binding to THP-1 cells (competition binding analysis), printed under 'AVERAGE ED50 (µM)'
[16] = target: T3, Duffy Antigen Receptor for Chemokines …; experiment: DARC binding
Procedure: as §1

[17] = target: chemokine receptors on the surface of Jurkat cells; experiment: biotinylated peptide binding to Jurkat cells
[18] = target: chemokine receptors on THP-1 cells; experiment: biotinylated derivative mixed with THP-1 cells
[19] = target: T2, Duffy Antigen Receptor for Chemokines …; experiment: Duffy binding
CCR5, P51681 = experiment: method not described; given as 'affinity constant'
Sequence of CCR5, P51681 (P51681 whole entry): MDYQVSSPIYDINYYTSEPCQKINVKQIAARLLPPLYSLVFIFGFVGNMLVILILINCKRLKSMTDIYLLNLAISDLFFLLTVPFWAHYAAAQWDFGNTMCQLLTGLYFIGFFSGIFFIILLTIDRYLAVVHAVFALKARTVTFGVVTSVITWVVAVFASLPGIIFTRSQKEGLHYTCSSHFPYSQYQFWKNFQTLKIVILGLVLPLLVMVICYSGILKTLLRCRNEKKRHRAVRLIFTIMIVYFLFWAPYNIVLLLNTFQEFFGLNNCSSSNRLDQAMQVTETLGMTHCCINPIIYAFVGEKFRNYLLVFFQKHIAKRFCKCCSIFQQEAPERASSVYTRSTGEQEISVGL

CXCR4, P61073 = target: T5, CXCR4, P61073; experiment: method not described; given as 'affinity constant'
T5 chain: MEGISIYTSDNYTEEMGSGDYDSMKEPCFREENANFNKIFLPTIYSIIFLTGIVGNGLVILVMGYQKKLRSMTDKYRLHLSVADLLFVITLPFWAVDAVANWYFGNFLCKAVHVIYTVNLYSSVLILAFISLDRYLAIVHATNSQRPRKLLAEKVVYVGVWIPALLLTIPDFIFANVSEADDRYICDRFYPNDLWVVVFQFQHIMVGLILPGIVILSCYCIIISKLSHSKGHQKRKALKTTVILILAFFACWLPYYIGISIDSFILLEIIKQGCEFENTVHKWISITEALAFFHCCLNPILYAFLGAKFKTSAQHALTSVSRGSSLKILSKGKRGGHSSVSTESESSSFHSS

[20] = target: T2, Duffy Antigen Receptor for Chemokines …; experiment: Duffy binding, LRD against LFL peptide 2(1-15)[MCP-1]
[21] = target: T2, Duffy Antigen Receptor for Chemokines …; experiment: DARC binding; details: modification not given

In the case of Peptide 3(7-9)[MCP-1], i.e, KQK, the % inhibition of migration induced by MCP-1 at 100 µM tripeptide [1] is reported as 95%, the % inhibition of migration induced by SDF1α at 100 µM tripeptide [1] is reported as 29% and the ED50 as inhibitor of MCP-1 induced THP-1 migration [1] is reported as 2 to 5 µM. It also gave an ED50 for inhibition of THP-1 migration induced by the one chemokine it is specific for (MCP-1) [1] of 6 µM, an ED50 for inhibition of THP-1 migration versus MCP1 [1] of 7 µM and a Kd [2] of 15 µM. For the same molecule, the Kd [3] was 0.5 µM and 1 µM and the Duffy selectivity [4] was 22.3.

With WVQ [Peptide 3(10-12)[MCP-1], i.e., WVQ] the ED50 for inhibition of THP-1 migration versus IL8 [5] was < 1 µM, the ED50 for inhibition of THP-1 migration versus MCP1 [5] was 8 µM and the ED50 for inhibition of THP-1 migration versus MIP1α [5] was < 1 µM. The ED50 for inhibition of THP-1 migration versus SDF1α [5] was < 1 µM, the ED50 for inhibition of migration induced by IL-8 [5] was 1 µM and the ED50 for inhibition of migration induced by MCP-1 [5] was 8 µM. It also gave an ED50 for inhibition of migration induced by MIP1α [5] of 7.5 µM, an ED50 for inhibition of migration induced by RANTES [5] of 1.5 µM and an ED50 for inhibition of migration induced by SDF1α [5] of 2 µM. It also gave an average ED50 for inhibition of THP-1 migration induced by each of the chemokines [5] of 2 µM, a Duffy selectivity [6] of 10 and a Kd [2] of 2 µM. The Duffy selectivity [7] was 24.8.

With EICADPKQKWVQ [peptide 3(1-12)[MCP-1]] the % inhibition of THP-1 migration at 100 µM versus IL8 [8] was 103%, the % inhibition of THP-1 migration at 100 µM versus MCP-1 [8] was 112% and the % inhibition of THP-1 migration at 100 µM versus MIP1α [8] was 99%. The % inhibition of THP-1 migration at 100 µM versus SDF-1α [8] was 107%, the ED50 for inhibition of THP-1 migration versus IL8 [8] was 14 µM and the ED50 for inhibition of THP-1 migration versus MCP-1 [8] was 8 µM. For the same molecule, the ED50 for inhibition of THP-1 migration versus MIP1α [8] was 8 µM, the ED50 for inhibition of THP-1 migration versus SDF-1α [8] was 10 µM and the average ED50 for inhibition of THP-1 migration induced by each of the chemokines [8] was 10 µM. For the same molecule, the inhibition of MCP-1 induced THP-1 migration at 100 µM, peptide incubated with the cells [8] was > 99%, the inhibition of MCP-1 induced THP-1 migration at 100 µM, peptide incubated with the chemokine [8] was 17% and the Duffy selectivity [9] was 1.

Molecule SYRRITSSK [Peptide 2(1-9)[MCP-1]] has a Kd [10] of ~50 µM.

B1: peptide 2(1-15)[MCP-1] (peptide)
peptide: SYRRITSSKCPKEAV
notes: synthetic linear L-form peptide; also called Pep2[MCP1]; Pep2(1-15)[MCP1]
B1 was tested, and the Kd [11] was 100 µM, the ED50 for inhibition of chemokine-induced THP-1 migration [8] was > 100 µM and the inhibition of chemokine-induced THP-1 migration at 100 µM [8] was 19%. For the same molecule, the promotion of THP-1 migration (agonist activity) [8] was 10 µM, the Kd [12] was 0.35 µM and the Kd [13] was < 0.5 µM. It also gave a Duffy selectivity [14] of 0.18 ratio and a Kd [15] of 2 µM.

Molecule SYRRITSSKSPKEAV [Ser10 variant of peptide 2(1-15)[MCP-1]] has a Kd [16] of 20 to 100 µM.

For SYRRITSSKCPKEAV (also: biotinylated, position not given here) [biotinylated peptide 2(1-15)[MCP-1]], the Kd [17] was 3 µM and the Kd [18] was 1.9 µM.

VAEKPCKSSTIRRYS (not fully specified) [LRD peptide 2(1-15)[MCP-1]] was tested, and the Kd [19] was 25 µM, the Kd (CCR5, P51681) was < 0.1 µM and the Kd (CXCR4, P61073) was < 0.1 µM. For the same molecule, the fold decrease in Duffy binding against the LFL peptide [20] was 100 fold and the Kd [21] was 18 µM.
